Positions count from the first letter of the chain named. Numbers in names are those of the source. Entries after “also recorded” stand apart in the source; their conditions may differ. Where two headings read alike, the source gives them in different places.
What was measured:
Assay type in all cases: binding
[1] = target: T1, PP1γ catalytic domain : GADD34 peptide pre-formed complex (Mus musculus, UniProt P63087); assay: Competition fluorescence anisotropy, displacement of FITC-GADD34 peptide from PP1γ (HEPES pH 8.0); conditions: 2 nM fluorescent GADD34 peptide + 250 nM PP1γ
T1 construct: mouse PP1γ catalytic domain (residues 7–300)-H6; His6 (C); made in house; host or cells: E. coli T7 Express lysY/Iq (PP1γ); tracer peptide synthesised by GenScript
T1 sequence (P63087 7-300, one chain of several): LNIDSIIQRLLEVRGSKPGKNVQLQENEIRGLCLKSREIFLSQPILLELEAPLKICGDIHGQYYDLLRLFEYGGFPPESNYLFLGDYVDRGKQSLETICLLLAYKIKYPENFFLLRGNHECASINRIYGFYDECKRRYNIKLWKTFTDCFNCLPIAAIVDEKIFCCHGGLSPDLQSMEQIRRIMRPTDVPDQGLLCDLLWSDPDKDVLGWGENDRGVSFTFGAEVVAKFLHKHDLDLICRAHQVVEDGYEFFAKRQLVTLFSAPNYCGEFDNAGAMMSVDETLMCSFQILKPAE
Description: (§1) Bacterial expression plasmids encoding the mouse PP1γ catalytic domain (residues 7–300)-H6 and pUL21-H6, and mammalian expression vectors encoding pUL21(FV242AA)-GFP, pORF38-GFP and pORF38(FV255AA)-GFP, were described previously ([23]). We note that the mouse and human PP1γ catalytic domains share 100% amino acid identity. pORF38-NLT-H6 was generated by sub-cloning residues 1 to 263 of ORF38 into the vector pOPTnH ([52]). pUL21-RVxF-H6 was generated by inserting the mutations A237V and V239F into pUL21-H6 by QuikChange site-directed mutagenesis. Human PP1α was cloned from HeLa cell cDNA into a vector derived from pF5K (Promega) with an N-terminal Myc epitope tag via restriction-based cloning, and point mutations were introduced into Myc-PP1α by QuikChange mutagenesis. A plasmid encoding pUL21-GFP was generated by sub-cloning a codon-optimized synthetic UL21 gene (GeneArt) into pEGFP-N1 (Clontech), yielding an identical pUL21-GFP amino acid sequence as used in ([23]). pUL21-ΔL, -ΔR and -ΔLR were generated from this vector via inverse PCR, and point mutations were introduced via QuikChange mutagenesis.
Peptides were commercially synthesised to >95% purity (GenScript) as follows: GADD34 RVxF+ϕϕ[xF] […]
(§2) Proteins were expressed using E. coli T7 Express lysY/I^q cells (New England Biolabs) grown in 2 × TY medium at 37 °C to OD600 0.8 to 1.2 before cooling to 22 °C and induction of protein expression using 0.4 mM IPTG. […] Fractions were analysed by SDS-PAGE and those containing the desired protein were pooled, concentrated using centrifugal concentrators (Millipore) and stored at 4 °C (short-term) or snap-frozen in liquid nitrogen for long-term storage at −70 °C.
Fluorescence anisotropy was measured using a SpectraMax i3 microplate reader (Molecular Devices) with wavelengths 485 ± 20 nm (excitation) and 535 ± 25 nm (emission). Samples (100 μl per well) were dispensed into low-bind black half-area 96-well microtitre plates (Corning) and fluorescence anisotropy was recorded at 27 °C. […]

[2] = target: T2, PP1γ catalytic domain (7–300), C-terminally His6-tagged (Mus musculus, UniProt P63087); assay: Isothermal titration calorimetry (ITC); set-up: key to KD / ∆H / ∆G / -T∆S / N (sites): –: no binding detected
T2 construct: mouse PP1γ catalytic domain (residues 7–300)-H6; made in house; host or cells: E. coli T7 Express lysY/Iq
T2 sequence (P63087 7-300): as the sequence (P63087 7-300, one chain of several) above
Description: as §1
Proteins were expressed using E. coli T7 Express lysY/I^q cells (New England Biolabs) grown in 2 × TY medium at 37 °C to OD600 0.8 to 1.2 before cooling to 22 °C and induction of protein expression using 0.4 mM IPTG. Cells were harvested at 16 to 20 h post-induction and pellets stored at −70 °C until required. Cells were resuspended in chilled lysis buffer (20 mM Tris pH 7.5, 20 mM imidazole, 500 mM NaCl, 1.4 mM β-mercaptoethanol 0.5 mM MgCl2 and 0.05% TWEEN-20 [plus 1 mM MnCl2 for PP1]) that was supplemented with 200 μl EDTA-free protease inhibitor cocktail (Merck) and 400 U bovine DNase I (Merck). Cells were lysed using a TS series cell disruptor (Constant Systems) at 24 kpsi and lysates were clarified (40,000×g, 30 min, 4 °C) before incubation with Ni-NTA agarose (Qiagen) for 1 h at 4 °C. The resin was washed with ≥20 column volumes of wash buffer (20 mM Tris, 20 mM imidazole and 500 mM NaCl [plus 1 mM MnCl2 for PP1]) at pH 7.5 (PP1γ and pORF38-NLT) or pH 8.5 (pUL21 and pUL21-RVxF). Protein was eluted using wash buffer supplemented with additional imidazole (final concentration 250 mM) and proteins were subjected to size-exclusions chromatography using HiLoad 16/600 Superdex 75 (PP1) or Superdex 200 (other) columns equilibrated in 20 mM Tris pH 8.5, 500 mM NaCl, 1 mM DTT (for pUL21 and pUL21-RVxF) or 50 mM HEPES pH 8.0, 500 mM NaCl, 0.5 mM TCEP (for PP1 and pORF38-NLT). Fractions were analysed by SDS-PAGE and those containing the desired protein were pooled, concentrated using centrifugal concentrators (Millipore) and stored at 4 °C (short-term) or snap-frozen in liquid nitrogen for long-term storage at −70 °C.
ITC experiments were performed using a MicroCal PEAQ-ITC automated calorimeter (Malvern Panalytical). The solvent (ITC buffer) was 50 mM HEPES pH 8.0, 500 mM NaCl, 0.5 mM TCEP. Lyophilized peptides were dissolved into ITC buffer and their concentration was estimated from dry mass. Proteins were diluted in ITC buffer, and their concentration was estimated from the theoretical extinction coefficient at 280 nm ([53]). […] Data were analyzed using MicroCal PEAQ-ITC analysis software (Malvern Panalytical) and fitted using a one-site binding model.
Table S1. Isothermal titration calorimetry (ITC) of PP1 with TROPPO-containing peptides and proteins. Data for independent experiments are shown. For all, the cell contained C-terminally His6-tagged mouse PP1γ (7–300). –, no binding detected.

[3] = target: T1, PP1γ catalytic domain : GADD34 peptide pre-formed complex; assay: Competition fluorescence anisotropy in Tris pH 8.5 buffer; conditions: 2 nM fluorescent GADD34 peptide + 250 nM PP1γ
Protocol: Similar competition fluorescence anisotropy experiments with purified full-length pUL21 (Fig. 5E) were performed in a buffer optimized to enhance solubility of the protein (Tris pH 8.5 in place of HEPES pH 8). […] To test whether optimization of the TROPPO sequence to better match a canonical RVxF motif could enhance binding, we generated, expressed and purified a pUL21-H6 mutant where residues A237 and V239 had been substituted for valine and phenylalanine, respectively (pUL21-RVxF, Fig. 5E).
as §1, with “A plasmid encoding pUL21-GFP was generated by sub-cloning a codon-optimized synthetic UL21 gene (GeneArt) into pEGFP-N1 (Clontech), yielding an identical pUL21-GFP amino acid sequence as used in ([23]). pUL21-ΔL, -ΔR and -ΔLR were generated from this vector via inverse PCR, and point mutations were introduced via QuikChange mutagenesis.” left out
as §2
Fluorescence anisotropy was measured using a SpectraMax i3 microplate reader (Molecular Devices) with wavelengths 485 ± 20 nm (excitation) and 535 ± 25 nm (emission). […]

[4] = TROPPO peptides, independent experiment 1, syringe/cell µM: pUL21 1000/58.8, pORF38 1000/79.6
[5] = TROPPO peptides, independent experiment 2, syringe/cell µM: pUL21 1000/54.5, pORF38 500/17.0
[6] = independent experiment 1, 240 µM titrant, 17.0 µM PP1, HEPES pH 8.0, 25 °C
[7] = independent experiment 2, 147 µM titrant, 10.0 µM PP1, HEPES pH 8.0, 25 °C
[8] = independent experiment 3, 153 µM titrant, 9.5 µM PP1, HEPES pH 8.0, 25 °C

AKRATVSEFVQVKHIDR [pUL21 TROPPO, pUL21 TROPPO peptide (residues 234–250)]
Displacement of GADD34 peptide from PP1 by TROPPO peptides ([1]; competitor at over 1000-fold molar excess, HEPES pH 8.0, 500 mM NaCl, 0.05% TWEEN-20, 27 °C): Neither TROPPO-containing peptide was able to displace the GADD34 peptide | ITC heats of TROPPO peptides against PP1 catalytic domain ([2]; 500–1000 μM peptide titrated, 50 mM HEPES pH 8.0, 500 mM NaCl, 0.5 mM TCEP, 25 °C): did not evolve heats above background levels | -T∆S [2, 4]: – | N (sites) [2, 4]: – | ∆G [2, 4]: – | ∆H [2, 4]: – | KD ([2]; TROPPO peptides, independent experiment 1, syringe/cell µM: pUL21 1000/58.8, pORF38 1000/79.6, HEPES pH 8.0, 25 °C): – | -T∆S [2, 5]: – | N (sites) [2, 5]: – | ∆G [2, 5]: – | ∆H [2, 5]: – | KD ([2]; TROPPO peptides, independent experiment 2, syringe/cell µM: pUL21 1000/54.5, pORF38 500/17.0, HEPES pH 8.0, 25 °C): –

B1: Full-length pUL21: purified full-length HSV-1 pUL21 (protein)
chain: MELSYATTMHYRDVVFYVTTDRNRAYFVCGGCVYSVGRPCASQPGEIAKFGLVVRGTGPDDRVVANYVRSELRQRGLQDVRPIGEDEVFLDSVCLLNPNVSSELDVINTNDVEVLDECLAEYCTSLRTSPGVLISGLRVRAQDRIIELFEHPTIVNVSSHFVYTPSPYVFALAQAHLPRLPSSLEALVSGLFDGIPAPRQPLDAHNPRTDVVITGRRAPRPIAGSGAGSGGAGAKRATVSEFVQVKHIDRVGPAGVSPAPPPNNTDSSSLVPGAQDSAPPGPTLRELWWVFYAADRALEEPRADSGLTREEVRAVRGFREQAWKLFGSAGAPRAFIGAALGLSPLQKLAVYYYIIHRERRLSPFPALVRLVGRYTQRHGLYVPRPDDPVLADAINGLFRDALAAGTTAEQLLMFDLLPPKDVPVGSDVQADSTALLRFIESQRLAVPGGVISPEHVAYLGAFLSVLYAGRGRMSAATHTARLTGVTSLVLAVGDVDRLSAFDRGAAGAASRTRAAGYLDVLLTVRLARSQHGQSV
modifications: left off: His6, C-terminal, kept
notes: purified full-length HSV-1 pUL21
Competition with GADD34 peptide for PP1 binding [3]: unable to out-compete GADD34 for binding to PP1 | Competition with GADD34 peptide for PP1 binding ([3]; listed as wild-type pUL21): cannot displace a GADD34 RVxF- and ϕϕ[xF]-containing peptide from PP1

B2: pUL21-RVxF: pUL21-H6 with mutations A237V and V239F (protein)
chain: B1 chain with A237V, V239F
modifications: left off: His6, C-terminal, kept
notes: pUL21-H6 with mutations A237V and V239F
Competition with GADD34 peptide for PP1 binding [3]: competes with the GADD34 peptide for binding to the PP1 hydrophobic groove; also recorded: the ability to compete with the GADD34 peptide for PP1 binding

B3: pORF38-NLT: VZV pORF38 N-terminal domain plus Linker region up to the end of the TROPPO motif (residues 1 to 263) (protein)
chain: MEFPYHSTVSYNGVTFYFNERATRAYFICGGCLISIPRKHGGEIAKFGHVVRGVGPGDRSVASYVRSELNRTGKTWAVSSNNNCVFLDRVALLAAGSGAVDRDLCGTFDVEVEDPTLADYLVSLPVTHLTLVAGVDVTRENKLKLFPTPTAINTTNGFMYVPNEASFSLVYMRMLELPESLQELVSGLFDGTPEIRDALNGSNDDEKTSIIVSRRAADVVTEDVKADDVPISGEPYSEKQPRRRKKSDHITLSNFVQIRTIPR
modifications: left off: His6, C-terminal, kept
Competition with RVxF peptide for PP1 binding ([1]; increasing concentrations of pORF38-NLT, HEPES pH 8.0): competes with the RVxF peptide for PP1 binding | ΔH, mean ([2]; 25 °C, HEPES pH 8.0, average of three independent experiments): -13.3 kcal/mol | Kd ([2]; independent experiment 1, 240 µM titrant in syringe, 17.0 µM PP1 in cell, HEPES pH 8.0, 25 °C, read-out: KD): 719 nM | -T∆S [2, 6]: 4.76 kcal/mol | N (sites) [2, 6]: 1.21 sites | ∆G [2, 6]: -8.38 kcal/mol | ∆H [2, 6]: -13.1 kcal/mol | Kd ([2]; independent experiment 2, 147 µM titrant in syringe, 10.0 µM PP1 in cell, HEPES pH 8.0, 25 °C, read-out: KD): 540 nM | -T∆S [2, 7]: 4.72 kcal/mol | N (sites) [2, 7]: 0.965 sites | ∆G [2, 7]: -8.55 kcal/mol | ∆H [2, 7]: -13.3 kcal/mol | Kd ([2]; independent experiment 3, 153 µM titrant in syringe, 9.5 µM PP1 in cell, HEPES pH 8.0, 25 °C, read-out: KD): 231 nM | -T∆S [2, 8]: 4.5 kcal/mol | N (sites) [2, 8]: 0.838 sites | ∆G [2, 8]: -9.06 kcal/mol | ∆H [2, 8]: -13.6 kcal/mol | PP1 binding compared with GADD34 peptide ([2]; pORF38-NLT ITC versus GADD34 peptide by fluorescence anisotropy or ITC): substantially weaker binding than observed for the GADD34 peptide | Kd ([2]; pORF38-NLT titrated into PP1, HEPES pH 8.0, 500 mM NaCl, 0.5 mM TCEP, 25 °C, one-site model, mean ± SEM, three independent experiments, listed as pOPF38-NLT, read-out: Affinity (KD), mean): ~500 nM

From publication PMC12723162, “Alphaherpesvirus pUL21 homologs use non-canonical sequences to compete with cellular adaptors for protein phosphatase 1 binding” (The Journal of Biological Chemistry, 2025)
